Here are results for 2 substances from article PMC3508296.

The experiment has as its target fibronectin (UniProt P02751). The experiment can be described thus: SPR.

Chain of fibronectin (P02751 32-2477): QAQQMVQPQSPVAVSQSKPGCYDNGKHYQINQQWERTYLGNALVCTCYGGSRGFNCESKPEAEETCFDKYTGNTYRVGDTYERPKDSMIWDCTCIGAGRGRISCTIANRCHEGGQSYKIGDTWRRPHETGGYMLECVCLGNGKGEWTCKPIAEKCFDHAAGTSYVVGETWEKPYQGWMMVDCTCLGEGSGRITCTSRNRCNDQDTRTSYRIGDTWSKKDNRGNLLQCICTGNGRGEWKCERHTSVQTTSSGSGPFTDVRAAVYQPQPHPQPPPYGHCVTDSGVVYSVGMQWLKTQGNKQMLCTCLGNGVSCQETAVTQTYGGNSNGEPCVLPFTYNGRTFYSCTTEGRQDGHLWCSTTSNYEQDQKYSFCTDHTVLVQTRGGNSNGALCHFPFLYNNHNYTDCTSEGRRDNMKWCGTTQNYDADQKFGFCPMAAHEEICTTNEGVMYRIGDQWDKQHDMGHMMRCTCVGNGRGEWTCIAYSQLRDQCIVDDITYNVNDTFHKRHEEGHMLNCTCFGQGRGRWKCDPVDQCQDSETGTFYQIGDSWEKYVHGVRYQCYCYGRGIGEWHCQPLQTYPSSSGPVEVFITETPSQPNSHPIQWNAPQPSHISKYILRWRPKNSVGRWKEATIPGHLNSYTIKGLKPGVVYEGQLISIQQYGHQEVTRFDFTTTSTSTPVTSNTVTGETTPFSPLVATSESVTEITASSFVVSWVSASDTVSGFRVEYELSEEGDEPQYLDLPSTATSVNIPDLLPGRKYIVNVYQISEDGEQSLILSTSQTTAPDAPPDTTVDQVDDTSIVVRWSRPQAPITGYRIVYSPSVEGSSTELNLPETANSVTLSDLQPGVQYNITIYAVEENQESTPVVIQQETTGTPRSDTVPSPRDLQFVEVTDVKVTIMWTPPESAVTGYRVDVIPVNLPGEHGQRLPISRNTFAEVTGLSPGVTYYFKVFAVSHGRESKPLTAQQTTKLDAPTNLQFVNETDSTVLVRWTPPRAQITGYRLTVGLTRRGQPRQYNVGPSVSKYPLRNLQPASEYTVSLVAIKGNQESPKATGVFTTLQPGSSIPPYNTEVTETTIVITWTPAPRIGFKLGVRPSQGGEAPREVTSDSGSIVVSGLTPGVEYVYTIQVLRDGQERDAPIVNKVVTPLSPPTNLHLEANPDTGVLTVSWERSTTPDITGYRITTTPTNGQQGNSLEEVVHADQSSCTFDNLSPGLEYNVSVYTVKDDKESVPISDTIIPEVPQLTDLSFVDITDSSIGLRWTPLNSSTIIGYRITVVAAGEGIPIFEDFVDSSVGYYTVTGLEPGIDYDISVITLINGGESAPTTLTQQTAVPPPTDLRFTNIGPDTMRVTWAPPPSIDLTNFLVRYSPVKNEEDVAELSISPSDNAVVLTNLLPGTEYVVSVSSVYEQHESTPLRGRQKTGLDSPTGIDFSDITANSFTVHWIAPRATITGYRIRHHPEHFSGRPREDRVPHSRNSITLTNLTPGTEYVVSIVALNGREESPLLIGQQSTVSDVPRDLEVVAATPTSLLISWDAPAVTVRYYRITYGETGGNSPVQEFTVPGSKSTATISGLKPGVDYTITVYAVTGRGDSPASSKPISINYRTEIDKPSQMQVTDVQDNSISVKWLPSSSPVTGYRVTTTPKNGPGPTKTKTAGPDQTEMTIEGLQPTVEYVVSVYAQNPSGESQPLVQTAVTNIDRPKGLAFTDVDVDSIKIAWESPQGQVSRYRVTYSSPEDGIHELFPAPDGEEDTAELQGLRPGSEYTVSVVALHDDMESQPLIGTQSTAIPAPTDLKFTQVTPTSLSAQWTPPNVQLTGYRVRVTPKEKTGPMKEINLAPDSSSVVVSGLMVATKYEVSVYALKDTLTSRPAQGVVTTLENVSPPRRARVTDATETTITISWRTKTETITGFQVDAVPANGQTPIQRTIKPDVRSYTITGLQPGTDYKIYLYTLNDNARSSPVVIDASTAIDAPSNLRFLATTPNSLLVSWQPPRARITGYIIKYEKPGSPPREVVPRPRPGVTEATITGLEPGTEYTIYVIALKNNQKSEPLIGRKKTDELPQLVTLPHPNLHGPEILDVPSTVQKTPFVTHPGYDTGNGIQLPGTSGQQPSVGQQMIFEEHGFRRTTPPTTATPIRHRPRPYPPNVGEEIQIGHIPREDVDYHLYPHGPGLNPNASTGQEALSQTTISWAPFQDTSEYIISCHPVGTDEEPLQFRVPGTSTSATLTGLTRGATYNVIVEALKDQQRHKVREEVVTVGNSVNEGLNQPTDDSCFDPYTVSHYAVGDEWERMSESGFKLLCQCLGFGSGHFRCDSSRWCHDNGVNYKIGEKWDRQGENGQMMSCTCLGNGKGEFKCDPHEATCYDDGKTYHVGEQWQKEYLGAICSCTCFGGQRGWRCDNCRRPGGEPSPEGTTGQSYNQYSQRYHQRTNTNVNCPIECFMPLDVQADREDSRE

“BB0347 (natural protein; other documents disagree on this pair)” yielded a Kd of 640 nM, a koff of 0.16 s⁻¹ and a kon of 265000 M⁻¹ s⁻¹.
As for “BBK32 (from UniProt O50835 1-354) (natural protein; other documents disagree on this pair)”, the Kd worked out at 19 nM, the koff was found to be 0.1 s⁻¹, the kon was 5.21e+06 M⁻¹ s⁻¹ and the t1/2 (calculated from Koff) is 6.93 s.
